Experiments:
[1] = biological target: recombinant Endothelial Protein C Receptor (EPCR) (UniProt Q9UNN8); assay: static adhesion assay of infected erythrocytes on spots of recombinant protein; recombinant receptor adsorbed as 20 ul spots on petri dishes in PBS overnight at 4°C (two-fold dilutions 10 to 0.31 ug/ml), blocked with Albumax; Percoll-purified trophozoite-stage infected HbAS (sickle-trait) RBCs, 4x10^6 cells per ml, 1 h at 37°C; washed, fixed, Giemsa-stained, counted per image; four-parameter log-logistic fit
Chain of UniProt Q9UNN8 (Q9UNN8 18-210): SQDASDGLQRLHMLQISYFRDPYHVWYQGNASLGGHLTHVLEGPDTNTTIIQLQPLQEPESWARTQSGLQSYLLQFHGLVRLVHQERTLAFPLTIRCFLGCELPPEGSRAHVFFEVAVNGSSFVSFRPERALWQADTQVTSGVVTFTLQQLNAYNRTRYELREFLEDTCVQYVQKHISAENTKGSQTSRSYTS

[2] = biological target: recombinant Endothelial Protein C Receptor (EPCR) (UniProt Q9UNN8); assay: static adhesion assay of infected erythrocytes on spots of recombinant protein; recombinant receptor adsorbed as 20 ul spots on petri dishes in PBS overnight at 4°C (two-fold dilutions 10 to 0.31 ug/ml), blocked with Albumax; Percoll-purified trophozoite-stage infected HbAA RBCs, 4x10^6 cells per ml, 1 h at 37°C; washed, fixed, Giemsa-stained, counted per image; four-parameter log-logistic fit
recombinant CD36 [3] = biological target: recombinant CD36 (UniProt P16671); assay: static adhesion assay of infected erythrocytes on spots of recombinant protein; recombinant receptor adsorbed as 20 ul spots on petri dishes in PBS overnight at 4°C (two-fold dilutions 10 to 0.31 ug/ml), blocked with Albumax; Percoll-purified trophozoite-stage infected HbAS (sickle-trait) RBCs, 4x10^6 cells per ml, 1 h at 37°C; washed, fixed, Giemsa-stained, counted per image; four-parameter log-logistic fit
Chain of UniProt P16671 (P16671 whole entry): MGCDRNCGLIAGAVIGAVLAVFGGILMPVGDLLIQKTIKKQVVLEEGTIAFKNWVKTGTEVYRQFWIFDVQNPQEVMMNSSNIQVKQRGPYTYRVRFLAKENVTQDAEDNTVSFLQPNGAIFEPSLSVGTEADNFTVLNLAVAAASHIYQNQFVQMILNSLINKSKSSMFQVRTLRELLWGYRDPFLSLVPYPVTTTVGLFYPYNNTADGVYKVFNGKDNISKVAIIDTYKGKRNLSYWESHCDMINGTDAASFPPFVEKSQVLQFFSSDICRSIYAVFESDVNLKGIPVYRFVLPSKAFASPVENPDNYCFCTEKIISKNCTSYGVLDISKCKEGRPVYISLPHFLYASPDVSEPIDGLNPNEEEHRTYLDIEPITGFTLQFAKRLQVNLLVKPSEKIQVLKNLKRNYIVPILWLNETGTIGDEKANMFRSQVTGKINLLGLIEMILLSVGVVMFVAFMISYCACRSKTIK

recombinant CD36 [4] = biological target: recombinant CD36 (UniProt P16671); assay: static adhesion assay of infected erythrocytes on spots of recombinant protein; recombinant receptor adsorbed as 20 ul spots on petri dishes in PBS overnight at 4°C (two-fold dilutions 10 to 0.31 ug/ml), blocked with Albumax; Percoll-purified trophozoite-stage infected HbAA RBCs, 4x10^6 cells per ml, 1 h at 37°C; washed, fixed, Giemsa-stained, counted per image; four-parameter log-logistic fit

Row | Substance | EPCR spot concentration at estimated 50% adhesion [1] [µg/mL] | EPCR spot concentration at estimated 50% adhesion [2] [µg/mL] | CD36 spot concentration at estimated 50% adhesion (recombinant CD36 [3]) [µg/mL] | CD36 spot concentration at estimated 50% adhesion (recombinant CD36 [4]) [µg/mL]
1 | IT4var20 PfEMP1 (EPCR-binding P. falciparum Erythrocyte Membrane Protein 1 variant of strain IT4) (natural protein) | 0.5 | 0.3 |  | 
2 | IT4var30 PfEMP1 (CD36-binding P. falciparum Erythrocyte Membrane Protein 1 variant of strain IT4) (natural protein) |  |  | 2.7 | 2.5

— paper PMC8221791
